The target in the assay is recombinant small latent TGF-β. Nature of the assay: cell-based or functional assay.

Consider “TSP stripped of TGF-β activity (sTSP) (from UniProt P07996 19-1170)”, for which the Fold Activation of Latent TGF-β over Baseline (soft agar NRK colony formation) (fold over baseline) turned out to be 2.

Take RFK (SEQ ID NO:18) (peptide): the Fold Activation of Latent TGF-β over Baseline (soft agar NRK colony formation) (fold over baseline) was 2.5.

(Values after patent US6384189.)
